Experimental findings from patent US20240016892A1 (SHATTUCK LABS, published 2024) are described below.

The target of experiment [1] is T1, recombinant human HVEM-Fc (human, UniProt Q92956 39-202, limits assumed).
T1 construct: also called human recombinant HVEM (MSD plates); not shown: Fc of the bought fusion (Acro Biosystems); not described
T1 sequence (looked up): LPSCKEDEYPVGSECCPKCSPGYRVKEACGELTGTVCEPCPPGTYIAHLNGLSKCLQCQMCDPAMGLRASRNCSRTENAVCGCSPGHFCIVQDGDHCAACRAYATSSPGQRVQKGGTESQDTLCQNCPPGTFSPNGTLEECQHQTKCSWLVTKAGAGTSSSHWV
Kind of experiment: MSD sandwich 'Dual - Potency #2': capture HVEM-Fc, TIGIT-Fc-LIGHT titrated, detection PVR-Biotin. How it is done:
(§1) For the TIGIT-Fc-LIGHT chimeric protein; MSD Multi-Array plates (MSD) were pre-coated overnight with recombinant human LTβR-Fc or HVEM-Fc (Acro Biosystems) at 4° C. The plates were blocked with Diluent 100 (MSD) for at least one hour at room temperature on a shaker. After washing, analysis samples were added and then serially diluted 3-fold and loaded in duplicate wells to generate 8-10 test concentrations. The bound the TIGIT-Fc-LIGHT chimeric protein was detected with recombinant biotinylated human PVR (Acro Biosystems). Streptavidin conjugated to ruthenium (MSD), was added to bind the biotin labeled detector. MSD Gold Reading buffer (MSD) was added to the plate, and upon application of an electrical charge, an electrochemiluminescent signal was produced and detected with the MSD MESO QuickPlex SQ 120MM, Model 1300, to generate relative light units (RLU). Analogous assays were performed using mTIGIT-Fc-LIGHT and murine recombinant PVR, HVEM, and […] (Acro Biosystems).
(§2) The binding of the TIGIT-Fc-LIGHT chimeric protein to its receptors was characterized by Meso Scale Discovery (MSD) ELISA assays. […] Binding of the chimeric protein to LTβR-Fc was detected using an PVR-Biotin and using an electrochemiluminescence (ECL) readout. […] Binding of the chimeric protein to HVEM-Fc was detected using an PVR-Biotin and using an electrochemiluminescence (ECL) readout. […]

In a further experiment the target is T2, recombinant human PVR (human, UniProt P15151 21-343).
T2 construct: The tagged PVR of the BLI assay and the biotinylated PVR used as detector in MSD are treated as one molecule; also called rhPVR; CD155
T2 sequence (looked up): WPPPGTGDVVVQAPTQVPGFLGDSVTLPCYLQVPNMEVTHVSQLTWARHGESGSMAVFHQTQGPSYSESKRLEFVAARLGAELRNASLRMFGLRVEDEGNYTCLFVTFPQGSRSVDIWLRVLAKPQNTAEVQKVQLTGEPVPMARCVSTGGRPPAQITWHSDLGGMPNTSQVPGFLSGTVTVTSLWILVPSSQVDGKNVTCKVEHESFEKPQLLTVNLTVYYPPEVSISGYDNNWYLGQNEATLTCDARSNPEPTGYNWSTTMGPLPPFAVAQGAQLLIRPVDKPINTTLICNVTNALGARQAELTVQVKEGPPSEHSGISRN
Kind of experiment: MSD sandwich 'Dual - Potency #1': capture LTβR-Fc, TIGIT-Fc-LIGHT titrated, detection PVR-Biotin (same curve as the capture row). As to the method: as §1, §2

The EC50 is the midpoint of the concentration-response curve.

B1: human TIGIT-Fc-LIGHT chimeric protein (Fc fusion)
chain: MMTGTIETTGNISAEKGGSIILQCHLSSTTAQVTQVNWEQQDQLLAICNADLGWHISPSFKDRVAPGPGLGLTLQSLTVNDTGEYFCIYHTYPDGTYTGRIFLEVLESSVAEHGARFQIPSKYGPPCPPCPAPEFLGGPSVFLFPPKPKDQLMISRTPEVTCVVVDVSQEDPEVQFNWYVDGVEVHNAKTKPREEQFNSTYRVVSVLTVLHQDWLSGKEYKCKVSSKGLPSSIEKTISNATGQPREPQVYTLPPSQEEMTKNQVSLTCLVKGFYPSDIAVEWESNGQPENNYKTTPPVLDSDGSFFLYSRLTVDKSRWQEGNVFSCSVLHEALHNHYTQKSLSLSLGKIEGRMDLQLHWRLGEMVTRLPDGPAGSWEQLIQERRSHEVNPAAHLTGANSSLTGSGGPLLWETQLGLAFLRGLSYHDGALVVTKAGYYYIYSKVQLGGVGCPLGLASTITHGLYKRTPRYPEELELLVSQQSPCGRATSSSRVWWDSSFLGGVVHLEAGEKVVVRVLDERLVRLRDGTRSYFGAFMV
notes: Said to exist as a hexamer (dimer of trimers); Glycosylated; also called hTIGIT-Fc-LIGHT; TIGIT-Fc(IgG4)-LIGHT
With B1, the EC50 in experiment [1] amounted to 86 nM; in the experiment with recombinant human PVR, 28.3 nM.
